Assay results published in patent US7083511.

What was measured:
[1] = molecular target: T1, GST-SGK (full length, wild type), O00141
T1 chain: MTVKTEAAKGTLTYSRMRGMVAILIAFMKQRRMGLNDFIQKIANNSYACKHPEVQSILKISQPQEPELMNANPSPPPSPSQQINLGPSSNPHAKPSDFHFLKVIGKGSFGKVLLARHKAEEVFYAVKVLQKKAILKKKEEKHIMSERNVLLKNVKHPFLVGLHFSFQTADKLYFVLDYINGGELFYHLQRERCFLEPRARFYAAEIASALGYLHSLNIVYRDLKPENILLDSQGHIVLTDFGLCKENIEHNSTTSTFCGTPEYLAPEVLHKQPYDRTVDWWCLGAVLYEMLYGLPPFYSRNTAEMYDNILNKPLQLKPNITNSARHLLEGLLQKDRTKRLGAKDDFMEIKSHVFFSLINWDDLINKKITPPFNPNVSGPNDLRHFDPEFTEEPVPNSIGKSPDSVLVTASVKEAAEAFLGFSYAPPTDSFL

[2] = molecular target: GST-SGK with Lys127 mutated to Ala (kinase dead), O00141
[3] = molecular target: GST-SGK with both Thr256 and Ser422 mutated to Ala, O00141
GST-SGK2α (wild type) = molecular target: T2, GST-SGK2α (wild type)
T2 chain: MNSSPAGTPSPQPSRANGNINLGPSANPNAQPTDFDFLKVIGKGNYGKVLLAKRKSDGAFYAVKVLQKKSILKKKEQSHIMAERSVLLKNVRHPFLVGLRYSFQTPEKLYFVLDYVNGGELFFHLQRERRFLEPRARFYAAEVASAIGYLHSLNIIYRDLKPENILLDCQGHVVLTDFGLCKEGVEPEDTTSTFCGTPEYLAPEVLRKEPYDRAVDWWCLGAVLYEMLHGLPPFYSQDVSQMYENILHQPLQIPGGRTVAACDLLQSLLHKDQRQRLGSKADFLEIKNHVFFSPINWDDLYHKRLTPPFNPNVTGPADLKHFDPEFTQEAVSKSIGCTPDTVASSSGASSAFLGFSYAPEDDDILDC

GST-SGK3 (wild type) = molecular target: T3, GST-SGK3 (wild type)
T3 chain: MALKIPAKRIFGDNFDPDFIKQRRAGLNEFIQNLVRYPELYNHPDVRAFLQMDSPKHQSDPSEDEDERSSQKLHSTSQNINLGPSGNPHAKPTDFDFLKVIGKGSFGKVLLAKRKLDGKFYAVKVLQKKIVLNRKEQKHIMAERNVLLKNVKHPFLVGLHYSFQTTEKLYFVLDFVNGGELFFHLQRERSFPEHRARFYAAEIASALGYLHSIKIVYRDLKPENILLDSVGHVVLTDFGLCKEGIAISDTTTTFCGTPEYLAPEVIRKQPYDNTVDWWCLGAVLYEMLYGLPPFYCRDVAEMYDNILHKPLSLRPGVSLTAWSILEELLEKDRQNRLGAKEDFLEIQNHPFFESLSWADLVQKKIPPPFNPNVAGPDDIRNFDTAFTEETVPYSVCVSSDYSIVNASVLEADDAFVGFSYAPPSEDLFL

[4] = molecular target: GST-SGK[T256A/S422D], O00141
[5] = molecular target: GST-ΔN-SGK(61-431)[S422D], O00141

Sequence of GST-PKBα, P31749 (P31749 whole entry, looked up): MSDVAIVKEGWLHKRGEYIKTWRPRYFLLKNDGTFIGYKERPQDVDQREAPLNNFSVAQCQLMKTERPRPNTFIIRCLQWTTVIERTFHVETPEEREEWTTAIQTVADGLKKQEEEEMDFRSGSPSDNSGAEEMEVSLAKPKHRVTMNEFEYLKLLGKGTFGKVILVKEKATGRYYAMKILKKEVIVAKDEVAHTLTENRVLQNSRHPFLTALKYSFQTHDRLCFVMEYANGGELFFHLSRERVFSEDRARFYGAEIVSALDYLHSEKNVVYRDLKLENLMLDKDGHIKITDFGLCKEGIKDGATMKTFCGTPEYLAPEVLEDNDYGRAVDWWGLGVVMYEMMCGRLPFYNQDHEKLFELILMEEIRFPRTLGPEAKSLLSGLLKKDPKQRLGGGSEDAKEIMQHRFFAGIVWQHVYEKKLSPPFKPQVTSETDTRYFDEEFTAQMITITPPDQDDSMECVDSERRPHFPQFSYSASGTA

B1: GST-PDK1 (protein)
chain: MARTTSQLYDAVPIQSSVVLCSCPSPSMVRTQTESSTPPGIPGGSRQGPAMDGTAAEPRPGAGSLQHAQPPPQPRKKRPEDFKFGKILGEGSFSTVVLARELATSREYAIKILEKRHIIKENKVPYVTRERDVMSRLDHPFFVKLYFTFQDDEKLYFGLSYAKNGELLKYIRKIGSFDETCTRFYTAEIVSALEYLHGKGIIHRDLKPENILLNEDMHIQITDFGTAKVLSPESKQARANSFVGTAQYVSPELLTEKSACKSSDLWALGCIIYQLVAGLPPFRAGNEYLIFQKIIKLEYDFPEKFFPKARDLVEKLLVLDATKRLGCEEMEGYGPLKAHPFFESVTWENLHQQTPPKLTAYLPAMSEDDEDCYGNYDNLLSQFGCMQVSSSSSSHSLSASDTGLPQRSGSNIEQYIHDLDSNSFELDLQFSEDEKRLLLEKQAGGNPWHQFVENNLILKMGPVDKRKGLFARRRQLLLTEGPHLYYVDPVNKVLKGEIPWSQELRPEAKNFKTFFVHTPNRTYYLMDPSGNAHKWCRKIQEVWRQRYQSHPDAAVQ
- maximal stoichiometry of phosphorylation by PDK1 (GST-PKBα, P31749): compared to 0.5 mol/mol for PKBα
- increase of SGK activity (Crosstide assay) after phosphorylation by PDK1 [1]: phosphor-ylation was accompanied by a 10-fold increase in the basal activity
- maximal stoichiometry of phosphorylation by PDK1 [1]: the maximal stoichiometry of phosphorylation that could be attained was 0.05 mol/mol
- stoichiometry of phosphorylation at 1.5 µg/ml PDK1, 30 min [1]: close to 1 mol/mol for SGK1 and SGK3
- phosphorylation by PDK1 [2]: This mutant was phosphorylated at the same rate, and to the same extent, as wild type SGK
- reduction of phosphorylation by PDK1 [3]: reduced phosphorylation by 80-90%
- stoichiometry of phosphorylation at 1.5 µg/ml PDK1, 30 min (GST-SGK2α (wild type)): 0.2 mol/mol for SGK2
- activation and phosphorylation by PDK1, against wild type SGK2α (GST-SGK2α[S356D]): SGK2[Ser356Asp] was activated (FIG. 17B) and phosphorylated (FIG. 17E) by PDK1 much more effectively than wild type SGK2α
- phosphate incorporated, 30 min with 1.5 µg/ml PDK1 and MgATP (GST-SGK2α[S356D]): incorporation of 1.2 and 1.3 mol phosphate per mol protein, respectively
- phosphate incorporated, 30 min with 1.5 µg/ml PDK1 and MgATP (GST-SGK3 (wild type)): incorporation of 1.2 and 1.3 mol phosphate per mol protein, respectively
- stoichiometry of phosphorylation at 1.5 µg/ml PDK1, 30 min (GST-SGK3 (wild type)): close to 1 mol/mol for SGK1 and SGK3
- extent of phosphorylation by PDK1 (GST-SGK[S422A], O00141): The mutation of Ser422 to Ala did not affect the extent of phosphorylation of SGK by PDK1
- reduction of the extent of activation by PDK1 (GST-SGK[S422A], O00141): reduced the extent of activation by 60%
- rate of phosphorylation and activation by PDK1, against wild type (GST-SGK[S422D], O00141): stimulated the rate of phosphorylation (FIG. 5C) and activation (FIG. 5D) by PDK1 at least six-fold
- reduction of phosphorylation by PDK1 [4]: phosphorylation by PDK1 was reduced by 80-90%
- reduction of phosphorylation by PDK1 (GST-SGK[T256A], O00141): reduced phosphorylation by 80-90%
- stoichiometry of phosphorylation by PDK1 [5]: phosphorylated by PDK1 to a stoichiometry of 0.6 mol/mol protein
